Laboratory results: patent publication US20200165313A1, “EGF(A) ANALOGUES, PREPARATION, FORMULATIONS AND USES THEREOF” (Novo Nordisk A/S, priority 2017, published 2020)

Target: hPCSK9 (Sino Biologicals, China) (human) (UniProt Q8NBP7)
Test: cell-based or functional assay

Q: Alirocumab (antibody) was tested. Which hepatic LDL-R expression, Percentage of baseline (%), mouse hPCSK9 challenge, inhibitor 22 nmol/kg did it give?
A: The hepatic LDL-R expression, Percentage of baseline (%), mouse hPCSK9 challenge, inhibitor 22 nmol/kg was 157%.
